Assay [1] has as its target RSV postfusion F (postF), F deltaFP (Respiratory Syncytial Virus). The assay is described as follows: BLI, IgG on anti-human IgG sensor, 100 nM antigen. (In general: BLI is a label-free optical method that tracks binding on a fibre tip over time.)
Assay [2] has as its target RSV prefusion F (preF), DS-Cav1 (Respiratory Syncytial Virus). Description: BLI, IgG on anti-human IgG sensor, 100 nM antigen.
In assay [3] the target is Respiratory Syncytial Virus fusion glycoprotein (RSV F) on RSV-A2 virus (Respiratory Syncytial Virus subtype A (RSV-A2)). Description: cell-based or functional assay.

B1: ADI-41215 (antibody, V domains shown)
VH: QVQLVESGGGVVRPGGSLRLSCAASGFTFDDYGMSWVRQAPGKGLEWVSGINWSGGSTDYADSVKGRFTISRDNAKNSLYLQMNSLRAEDTALYYCAKEGQEWELLPWYFDLWGRGTLVTVSS
VL: QPVLTQPASVSGSPGQSITIPCTGTSSDVGIYNLVSWYQQHPGKAPKLMIYDVSKRPSGVSNRFSGSKSGNTASLTISGLQAEDEADYYCCSYAGGSTYVFGTGTKLTVL
As usually defined, the Kd is the concentration at which binding is half-saturated. A lower Kd goes with a tighter complex. For B1, the Kd in assay [1] came out at 0.563 nM; in assay [2], 0.437 nM. The molecule also returned a Neutralization IC50 (RSV subtype A) in assay [3] of 0.32 µg/mL.

B2: ADI-41196 (antibody, V domains shown)
VH: EVQLVESGGGLVQPGGSLRLSCIVSGFPFNTYAMSWVRQAPGKGLEWVSVVSASGGNTDYADSVKGRFTISRDNSKKTLYLQMNSLRAEDTAVYYCARTESNTLAPSWSGRYVTDWYFDLWGRGTLVTVSS
VL: EIVMTQSPSSLSASVGDRVTITCRASQSISSFLNWYQQKPGKAPKLLISAASSLQSGVPSRFSGSGSGTDFTLTISSLQPEDFATYYCQQSYSIPTFGQGTRLEIK
Regarding B2, the Kd is 0.595 nM in assay [1] and 2.92 nM in assay [2]. The same molecule gave a Neutralization IC50 (RSV subtype A) in assay [3] greater than 25 µg/mL.

B3: ADI-41201 (antibody, V domains shown)
VH: EVQLLESGGGLVQPGGSLRLSCAASGFAFDIYSMNWVRQAPGKGLEWLSYISSRGETIYYADSVKGRFTISRDNARNSLYLQMNGLRDEDTATYYCYYYGSGISSHGGAFDYWGQGTLVTVSS
VL: DIVMTQTPATLSLSPGERATLTSRASQSVSSFLAWYQQKPGQAPRLLIYDVSNRATGVPARFSGSGSGTDFTLTISSLEPEDIAVYYCQQRNTWPAITFGQGTKVEIK
In the case of B3, the dissociation constant Kd in assay [1] is 0.637 nM; in assay [2] it was 3.82 nM. Also, in assay [3], the Neutralization IC50 (RSV subtype A) was greater than 25 µg/mL.

B4: ADI-41186 (antibody, V domains shown)
VH: EVQLLESGAEVKKPGESLKISCKGSGYSFSSYWIAWVRQMPGKGLEWMGIIYPSDSDTKYSPSFQGQVTISADKSISTAYLQWSSLKASDTAMYYCARQAGIQRPLDYWGQGTLVTVSS
VL: EIVMTQSPATLSVSPGERATLSCRASQSVRSNLAWYQQKPGQAPRLLIYDASTRATGISARFSGSGSGTEFTLTISSLQSEDFAVYYCQQFHNWPPYTFGQGTKVEIK
As for B4, the equilibrium dissociation constant (Kd) was 0.703 nM in assay [1] and 3.01 nM in assay [2]. Moreover, the Neutralization IC50 (RSV subtype A) in assay [3] is greater than 25 µg/mL.

B5: ADI-41224 (antibody, V domains shown)
VH: EVQLVETGGGLVQPGRSLRLSCTASGFTFGDYAMNWVRQAPGKGLEWIGIIRTKTYGGTTEYAASVKGRFTISRDDSKGIAYLQMNSLKTEDTGVYYCTMPVLNMDVWGQGTTVTVSS
VL: QPVLTQPHSVSESPGKTVTISCTRNIGNIASNYVQWYQQRPGSSPTTVIYEDNQRPSGVPDRFSGSIDISSNSASLTISGLKTEDEADYYCQSYDSNNPWVFGGGTQLTVL
With B5, the equilibrium dissociation constant (Kd) is 0.558 nM in assay [1] and 0.524 nM in assay [2]. The molecule also gave a Neutralization IC50 (RSV subtype A) in assay [3] of 0.13 µg/mL.

B6: ADI-41225 (antibody, V domains shown)
VH: EVQLVESGGGLVKPGGSLRLSCAASGFSLSDYYMTWLRQAPGKGLEWVSSIGTTSTYTNYAESVKDRFTISRDNAKNSLYLQMNSLRAEDTAVYYCARDWGFGVERGYFDLWGRGTLVTVSS
VL: DIVLTQTPSTLSASVGDRVTITCRASQSISFWLAWYQQKPGKAPKLLIYKASTLESGVPSRFSGRGSGTDFTLTISSLQPDDFATYYCQQYNTYTWTFGQGTKVEIK
Take B6: the values for the Kd in assay [1] and in assay [2] were 0.733 nM and 4.15 nM, respectively. Besides, the Neutralization IC50 (RSV subtype A) in assay [3] is greater than 25 µg/mL.

B7: ADI-41207 (antibody, V domains shown)
VH: QVQLVQSGPALVKPTQTLTLTCTFSGFSLSTKGMCVSWIRQPPGKALEWLALIDWDDDKFYSTSLKTRLTISKDTSKNQVVLTMTNMDPVDTATYYCARTLYFYGSGSLSDYCFDYWGQGTPVTVSS
VL: QPVLTQPRSVSGSPGQSVTISCTGTSRDVGNYNFVSWYQQHPGKAPKLIIYDVTKRPSGVPDRFSGSKSGNTASLTISGLQAEDEADYYCCSYAGTYTWVFGGGTKVTVL
As for B7, the Kd in assay [1] was 0.438 nM; in assay [2], 2.53 nM. This molecule also showed a Neutralization IC50 (RSV subtype A) in assay [3] greater than 25 µg/mL.

B8: ADI-41197 (antibody, V domains shown)
VH: QVQLVQSGAEVKKPGASVKVSCKASGYTFSGYYMHWVRQAPGQGLEWVGRINPKSGDTVYAQKFQGRVTMTRDTSISTAYMELSRLISDDTAKYYCARQEDHYYGSGNFYNSFDFWGQGTLVTVSS
VL: ETTLTQSPSSLSASVGDRVTITCRASQSISSNLNWYQQKPGKAPKLLIYGASTLQSGVPSRFSGSGSGTDFTLTISSLQPEDLATYYCQQSYSNPGKTFGQGTKVDIK
For the molecule B8, the results for the Kd in assay [1] and in assay [2] were 0.531 nM and 0.795 nM, respectively. Besides, in assay [3], the Neutralization IC50 (RSV subtype A) is 0.27 µg/mL.

B9: ADI-41212 (antibody, V domains shown)
VH: EVQLLESGAEVKKPGASVKVSCKASGYTFTDYYIHWVRQAPGQGLEWMGRINPKNGDAIYAQNFQGRVTMTRDTSISTAYMEVSRLTSDDTAVYYCARDQMWLVLDYWGQGTLVTVSS
VL: QSALTQPASVSGSPGQSITISCTGTSSDVGGYDYVSWYQQHPGKAPKLMIHDVTNRPSGISHRFSGSKSGNTASLTISGLQAGDEADYYCSSYTRSNTKVFGTGTKVTVL
Turning to B9, the Kd stood at 0.4 nM in assay [1] and 3.18 nM in assay [2]. This molecule also displayed a Neutralization IC50 (RSV subtype A) in assay [3] greater than 25 µg/mL.

B10: ADI-41228 (antibody, V domains shown)
VH: EVQLLESGPGLVKPSETLSLTCTVSGGSISSYQWNWIRQPPGKGLEWLGYVYYSGSTNYNPSLKSRVTLSVDTSKNQFSLKLSSVTAADTAVYYCARDRRDGSFVFDYWGQGTLVTVSS
VL: QSVLIQPASVSGSPGQSITISCTGTSSDVGGYNYVSWYQQHPGKAPKLMIYDVSNRPSGISNRFSGSKSGNTASLTISGLQAEDEADYYCSSYTSSTTLVFGTGTKVTVL
Turning to B10, the dissociation constant Kd in assay [1] amounted to 0.618 nM; in assay [2], 4.86 nM. In assay [3], the Neutralization IC50 (RSV subtype A) is greater than 25 µg/mL.

B11: ADI-41189 (antibody, V domains shown)
VH: QVQLVESGGGLVKPGGSLRLSCAASGFTFSSYSMNWVRQAPGKGLEWVSSMSSSSGYIDYADSVKGRFTISRDNAKNSLYLQMNSLRVEDTAVYYCARRNAVVVPSLMVVADYYYGMDVWGQGTTVTVSS
VL: QSVLTQPPSVSGAPGQRVTISCTGSSSNIGAGYDVHWYQQLPGTAPKLLIYGNSNRPSGVPDRFSGSKSGTSASLAITGLQAEDEADYYCQSYDTSLSGPGYVFGTGTKLTVL
B11: the Kd came out at 0.608 nM in assay [1] and 2.86 nM in assay [2]. In addition, the Neutralization IC50 (RSV subtype A) in assay [3] was greater than 25 µg/mL.

B12: ADI-41200 (antibody, V domains shown)
VH: EVQLLESGGGLVKPGGSLRLSCAASGLTFSDHDMSWVRQAPGKGLEWVSGIGGSGSNTYYAGSVKGRFTISRDNSKNTLYLQMDSLRVEDTAVYYCAKDPYGDYRDYYGMDVWGQGTTVTVSS
VL: DIVLTQTPFSLPVTPGEPASISCRSSQSLLKSNGYNYLDWFLQKPGQSPQLLIYLGSNRASGVPDRFSGSGSGTDFTLKISRVEAEDVGVYYCMQTLQALYTFGQGTKVEIK
For the molecule B12, the figures for the Kd in assay [1] and in assay [2] were 0.318 nM and 0.334 nM, respectively. The molecule further had a Neutralization IC50 (RSV subtype A) in assay [3] greater than 25 µg/mL.

B13: ADI-41214 (antibody, V domains shown)
VH: EVQLVESGGGLVQPGGSLRLSCAASGFTFSSYWMSWVRQAPGKGLEWVATIKQDGSEKYSVDSVKGRFTISRDNPKKSLYLQMNSLRAEDTAVYYCARDYRVEYYHSSDKLKRYYYYGMDVWGQGTTVTVSS
VL: DIRVTQSPSSLSASVGDRVTITCRASQSISTYLNWYQQKPGKAPKFLIYAASSLESGVPSRFSGSGSGTDFSLTISSLQPEDFATYYCQQSYSIPITFGQGTRLEIK
For B13, the Kd in assay [1] was determined as 1.02 nM; in assay [2], 5.7 nM. Also, the Neutralization IC50 (RSV subtype A) in assay [3] was greater than 25 µg/mL.

B14: ADI-41202 (antibody, V domains shown)
VH: QVQLVESGAEVKKPGSSVKISCKASGGTFSSHPISWVRQAPGQGLEWMGRIVPIFGIANYAQKFQGRVTMIADKSTNTAYMELSNLRSEDTAVYYCASPVYDSSGFQWGQGTLVTVSS
VL: QSALIQPRSVSGSPGQSVTISCTGTSGDGGFYNYVSWYQQHPGKTPKLMIYDVDQRPSGVPDRFSGSKSGNTASLTISGLQAEDEADYYCCSYPGNPLYVFGTGTKLTVL
Regarding B14, the dissociation constant (Kd) is 0.333 nM in assay [1] and 1.12 nM in assay [2]. This molecule came in with a Neutralization IC50 (RSV subtype A) in assay [3] greater than 25 µg/mL.

B15: ADI-41205 (antibody, V domains shown)
VH: QVQLQESGPGLVKPSGTLSLTCAVSGGSISSTNWWSWVRQPPGKGLEWIGEIYHSGSTNYNPSLKSRVTISVDKSNNQFSLNLSSVTAADTAVYYCARGVITYRGSWFLQYFDYWGQGTLVTVSS
VL: DIRVTQSPDSLAVSLGERATINCKSSQSLFYSSNNQNYLAWYQQKPGQPPKLLIYWASTRQSGVPHRFSGSGSGTDFTLTISSLQAEDVAVYYCQQYYSSPLTFGGGTKVEIK
Take B15: the results for the dissociation constant Kd in assay [1] and in assay [2] were 0.536 nM and 1.16 nM, respectively. This molecule also registered a Neutralization IC50 (RSV subtype A) in assay [3] greater than 25 µg/mL.

B16: ADI-41213 (antibody, V domains shown)
VH: EVQLVESGGGLIQPGGSLRLSCAASGFTVSSNYMSWVRQAAGKGLEWVSLIYSGDSTYYADSVKGRFTISRDNSQNTLYLQMNSLRAEDTAVYYCARDASPNVGYYGMDVWGQGTTVTVSS
VL: DIVLTQPPSVSVSPGQTASITCSGGKLGDTYACWYQQKPGQSPVLVIYQDSKRPSGIPERFSGSNSGNTATLTISGTQAMDEADYYCQAWDSSTARYVFGTGTKVTVL
As to B16, the dissociation constant (Kd) in assay [1] came out at 0.577 nM; in assay [2], 3.47 nM. In assay [3], the Neutralization IC50 (RSV subtype A) is greater than 25 µg/mL.

B17: ADI-41190 (antibody, V domains shown)
VH: QVQLVQSGAEVKKPGASVKVSCKAFGYTFRSYDMQWVRQAPGQRLEWMGWINAVNGDTKYSQKFQGRVTITRDTSATTVYMELSSLRSEDTAVYYCARWGRFWNSRSLDYYAMDVWGQGTTVTVSS
VL: DIVMTQSPGTLSLSPGERATLSCRASQSISSSYLVWYQHKPGQAPRLLIYGASTRATDIPDRFSGSGSGTDFTLTISRLEPEDFAVYYCQQYGSSPLTFGQGTRLEIK
On to B17, for which the Kd was 0.971 nM in assay [1] and 2.29 nM in assay [2]. The molecule also registered a Neutralization IC50 (RSV subtype A) in assay [3] greater than 25 µg/mL.

The values above are taken from patent publication US20260258115A1.
